In publication PMC6005513:

Key:
[1] = target: WMHBV myr-preS1-Al633-peptide; assay: Al633 fluorescence of labelled myr-preS1-peptide bound to transfected HEK293 cells; settings: 10 nM peptide, 20 min, 37°C, read off a plot
[2] = target: HBV myr-preS1-Al633-peptide (UniProt P03138); assay: as above; settings: 10 nM peptide, 20 min, 37°C, read off a plot

For “Macaca mulatta (rhesus macaque) Ntcp, wild type (from UniProt A0A0U4DKK4) R158G”, the response ([1]; parent: est. 11000) was 20000 rfu.

For “human Na+/taurocholate co-transporting polypeptide (NTCP), wild type (from UniProt Q14973) G158V”, the response ([1]; parent: est. 24000) was 10000 rfu.

“Callithrix jacchus (common marmoset) Ntcp, wild type (from UniProt F7HA36) G158S” was tested, and the response ([1]; parent: est. 20000) was 14000 rfu.

“human Na+/taurocholate co-transporting polypeptide (NTCP), wild type (from UniProt Q14973) G158N” gave a response ([1]; parent: est. 24000) of 12000 rfu.

For “Saimiri sciureus (common squirrel monkey) Ntcp, wild type G158S”, the response ([2]; parent: est. 18000) was 11000 rfu and the response ([1]; parent: est. 18000) was 10000 rfu.

For “Saimiri sciureus (common squirrel monkey) Ntcp, wild type G158R”, the response ([2]; parent: est. 18000) was 10000 rfu and the response ([1]; parent: est. 18000) was 11000 rfu.

For “Callithrix jacchus (common marmoset) Ntcp, wild type (from UniProt F7HA36) G158R”, the response ([1]; parent: est. 20000) was 11000 rfu.

For “Saguinus oedipus (cotton-top tamarin) Ntcp, wild type (from UniProt A0A0U4EKU3) S158G”, the response ([1]; parent: est. 11000) was 15000 rfu.

For “Chlorocebus aethiops (grivet) Ntcp, wild type (from UniProt A0A0U3VGV8) R158G”, the response ([1]; parent: est. 11000) was 20000 rfu.

“human Na+/taurocholate co-transporting polypeptide (NTCP), wild type (from UniProt Q14973) G158S” was tested, and the response ([1]; parent: est. 24000) was 19000 rfu.

“human Na+/taurocholate co-transporting polypeptide (NTCP), wild type (from UniProt Q14973) G158R” was tested, and the response ([1]; parent: est. 24000) was 11000 rfu.

“Semnopithecus sp. (langur) Ntcp, wild type R158G” was tested, and the response ([2]; parent: est. 11000) was 28000 rfu and the response ([1]; parent: est. 10000) was 21000 rfu.

Substance “human Na+/taurocholate co-transporting polypeptide (NTCP), wild type (from UniProt Q14973) G158D” has a response ([1]; parent: est. 24000) of 12000 rfu.

“Macaca fascicularis (crab-eating macaque) Ntcp, wild type R158G” was tested, and the response ([2]; parent: est. 11000) was 25000 rfu and the response ([1]; parent: est. 11000) was 18000 rfu.
